Measurements taken from the nanobody polyreactivity screen of Harvey et al. (2022).

Test: yeast display, Sf9 membrane polyspecificity reagent, FACS + sequencing; frameworks hold sequencing errors
Method in brief: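 Galactose induction of a Saccharomyces cerevisiae BJ5465 synthetic nanobody display library ran 36–48 hours. The cells were then stained for 1 hour at 4 °C with 10% biotinylated, detergent-solubilized Sf9 membrane reagent, pulled down on streptavidin microbeads and FACS-sorted into low and high (top ~1%) gates on expression and reagent-binding fluorescence. Labels for polyreactivity follow the gate of origin.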
With “QVQLVESGGGLVQAGGSLRLSCAASGRIFSYYAMGWYRQAPGKERELVASISRSGGSTYYADSVKGRFTISRDNAKNTVYLQMNSLKPEDTAVYYCAAYKYVRSYPYDYWGQGTQVTVSS” the “polyreactivity (PSR sort gate)” value was “low polyreactivity”.
In the case of “QVQLVESGGGLVQAGGSLRLSCAASGRIFSYYAMGWYRQAPRKERELVAGINWRGGRTYYADTVKGRFTISRDNAKITGYLQMNSLKPEETAVYYCAGDHPETPYDYWGQGTQVTVSS”, the “polyreactivity (PSR sort gate)” value is reported as “high polyreactivity”.
For “QVQLVESGGGLVQAGGSLRLSCAASGRIFTAYAMGWYRQAPGKERELVAAISSGDSTYYADSVKGRFTISRDNAKNTVYLQMNSLKPEDTAVYYCAAEGYLWGQSYNGLNYDSWGQGTQVTVSS”, the “polyreactivity (PSR sort gate)” value was “low polyreactivity”.
With “QVQLVESGGGLVQAGGSLRLSCAASGRIFTDNAMGWYRQEPGKERELVAAIRGSGSSTYYADSVKGRFTISRDNAKNTVYLQMNSLKPEDTAVYYCAARRAVYRGNYWGQGTQVTVSS” the “polyreactivity (PSR sort gate)” value was “high polyreactivity”.
With “QVQLVESGGGLVQAGGSLRLSCAASGRIFTFNAMGWYRQAPGKERELVAAINSGGSRTYYADSVKGRFTISRDNAKNTVYLQMNSLKPEDTAVYYCAAGYSGWVRSSSPFYYWGQGTQVTVSS” the “polyreactivity (PSR sort gate)” value was “high polyreactivity”.
In the case of “QVQLVESGGGLVQAGGSLRLSCAASGRIFTFNAMGWYRQAPGKERELVAAIRRGGGRTYYADSVKGRFTISRDNAKNTVYLQMNSLKPEDTAVYYCAAPFYRQSLIEYDYWGQGTQVTVSS”, the “polyreactivity (PSR sort gate)” value is reported as “high polyreactivity”.
For “QVQLVESGGGLVQAGGSLRLSCAASGRIFTFYAMGWSRQAPGKERELVAVITTGTSTTYADSVKGRFTISRDNAKNTVYLQMNSLKPEDTAVYYCAVDSWSRVQGWLAHNYDYWGQGTQVTVSS”, the “polyreactivity (PSR sort gate)” value was “low polyreactivity”.
In the case of “QVQLVESGGGLVQAGGSLRLSCAASGRIFTGNARGWYRQAPGKERELVAGISTSGGSTYYADSVKGRFTISRDNAKNTVYLQMTSLTPEDTAVYYCAAAYVHYVYKYDYWGQGTQVTVSS”, the “polyreactivity (PSR sort gate)” value is reported as “high polyreactivity”.
In the case of “QVQLVESGGGLVQAGGSLRLSCAASGRIFTGYAMGWYRQAPGKERELVAAISRGGSTNYADSVKGRFTISRDNAMNTVYLQMNSLKAEDTSVYYCACGVHWDRGDYWGQGAQVTVSS”, the “polyreactivity (PSR sort gate)” value is reported as “low polyreactivity”.
For “QVQLVESGGGLVQAGGSLRLSCAASGRIFTGYAMGWYRQAPGKERELVAAITASGGNTYYADSVKGRFTISRDNAKNTVYLQMNSLKPEDTAVYYCAAGWYDQPDDYTSAYGVTKYGYWGQGTQVTVSS”, the “polyreactivity (PSR sort gate)” value was “low polyreactivity”.
For “QVQLVESGGGLVQAGGSLRLSCAASGRIFTGYAMGWYRQAPGKERELVAVISSSTDRTYSADSVKGRFTISRDNAKNTVYFQMNSLKPEDTAVYYCAARPYRHKSRRYDYWGHGTQVTVSS”, the “polyreactivity (PSR sort gate)” value was “high polyreactivity”.
In the case of “QVQLVESGGGLVQAGGSLRLSCAASGRIFTGYAMGWYRQAPGTERELVAAISDGGSTNYADSVKGRFTISRDNAKNTVYLQMNSLKPEDTAVYYCAADGHSSDKYDYWGQGTQVTVSS”, the “polyreactivity (PSR sort gate)” value is reported as “low polyreactivity”.
For “QVQLVESGGGLVQAGGSLRLSCAASGRIFTHNAMGWYRQAPGKERELVAAISYSGVSTYYADSVKGRFTISRDNAKNTVYLQMNSLKPEDTAVYYCARDRWKWHYGYDYWGQGTQVTVSS”, the “polyreactivity (PSR sort gate)” value was “low polyreactivity”.
In the case of “QVQLVESGGGLVQAGGSLRLSCAASGRIFTHNAMGWYRQAPGKERELVAAITWTGGSTYADSVKGRFTISRDNAKKTVYLQMNSLKPEDTAVYYCNARAHRYYLYDVQFGRGHSGGYWGQGTQVTVSS”, the “polyreactivity (PSR sort gate)” value is reported as “low polyreactivity”.
With “QVQLVESGGGLVQAGGSLRLSCAASGRIFTHNSMGWYRQAPGKERELVAAISYSGVSTYYADSVKGRFTISRDTAKNTVFLQMNSLKPEDTAVYYCNAVWEYSGKSDYWGQGTQVSVSS” the “polyreactivity (PSR sort gate)” value was “low polyreactivity”.
For “QVQLVESGGGLVQAGGSLRLSCAASGRIFTINAMGWYRQAPGKERELVAAISWSGVRTYYADSVKGRFTISRDNAKNTVYLQMNSLKPEDTAVYYCAKRRQYQRSYNYWGQGTQVTVSS”, the “polyreactivity (PSR sort gate)” value was “low polyreactivity”.
In the case of “QVQLVESGGGLVQAGGSLRLSCAASGRIFTINAMGWYRQAPGKERELVAVITRGGSTKYADSVKGRFTISRDNAKNTVYLQMNSLKPEDTAVYYCAARVRAGHGKNGYWGQGTQVTVSS”, the “polyreactivity (PSR sort gate)” value is reported as “high polyreactivity”.
With “QVQLVESGGGLVQAGGSLRLSCAASGRIFTKYAMGWYRQAPGKDRELVAAISYRGGSTYYADSVKGRFTISRDNAQNTVYLQMNSLKPEDTAVYYCATSWTPNYFVTSDYWGQGTQVTVSS” the “polyreactivity (PSR sort gate)” value was “high polyreactivity”.
For “QVQLVESGGGLVQAGGSLRLSCAASGRIFTKYAMGWYRQAPGKERELVATITRNGGSTYYADSVKGRFTISRDNAKNTVYLQMNSLKPEDTAVYYCAADKRYKLDYWGQGTQVTVSS”, the “polyreactivity (PSR sort gate)” value was “high polyreactivity”.
For “QVQLVESGGGLVQAGGSLRLSCAASGRIFTLYAMGWYRQAPGKERELVAGISRSGGSTYYADSVKGRFTISRDNAKNTVYLQMNSLKPEDTAVYYCNAVPIYYAWRRNKPFDYWGQGTQVTVSS”, the “polyreactivity (PSR sort gate)” value was “low polyreactivity”.
With “QVQLVESGGGLVQAGGSLRLSCAASGRIFTNNAMGWYRPAPGKERELVAAISRSGGRTYYADSVKGRFTISRDNAKNTVYLQMNSLKPEDTAVYYCAAVHLYYGYNSPFTMDYWGQGTQVTVSS” the “polyreactivity (PSR sort gate)” value was “high polyreactivity”.
In the case of “QVQLVESGGGLVQAGGSLRLSCAASGRIFTPYAMGWYRQAPGKERELVATISRGTSTSYADSVKGRFTISRDNAKNTVYLQMNSLKPEDTAVYYCAALGPRTTFRYTSYYYWGQGTQVTVSS”, the “polyreactivity (PSR sort gate)” value is reported as “high polyreactivity”.
With “QVQLVESGGGLVQAGGSLRLSCAASGRIFTPYAMGWYRQAPGKERELVAVIRDGSTYYADSVKGRFTISRDNAKNTVYIQMNSLKPEDTAVYYCRYDIWVWWSGAYDYWGQGTQVTVSS” the “polyreactivity (PSR sort gate)” value was “low polyreactivity”.
In the case of “QVQLVESGGGLVQAGGSLRLSCAASGRIFTQYAMGWYRQAPGKERELVAAINASDGSTYYADSVKGRFTISRDNAKNTVYLQMNSLKPEDTAVYYCAGYAYNAIEYGYWGQGTQVTVSS”, the “polyreactivity (PSR sort gate)” value is reported as “low polyreactivity”.
In the case of “QVQLVESGGGLVQAGGSLRLSCAASGRIFTRNAMGWYRQAPGKEREFVAAISSSGSSTYFADSVKGRFTISRDNAKNTVYLQMNSLKPEDTAVYYCAARVTSPVSHDRVDYWGQGTQVTVSS”, the “polyreactivity (PSR sort gate)” value is reported as “high polyreactivity”.
For “QVQLVESGGGLVQAGGSLRLSCAASGRIFTRNAMGWYRQAPGKEREFVAAISWSGGSTYYADSVKGRFTISRDNAKNTFYLQMNSLKPEDTAVYFCAAKNSGGYVSWYDYWGQGTQVTVSS”, the “polyreactivity (PSR sort gate)” value was “low polyreactivity”.
For “QVQLVESGGGLVQAGGSLRLSCAASGRIFTRNAMGWYRQAPGKERELVATISAGGGRTSYADSVKGRFTISRDNAKNTVELQMNSLKPEDTAVYYCAARGQVGYYWGQGTQVTVSS”, the “polyreactivity (PSR sort gate)” value was “high polyreactivity”.
With “QVQLVESGGGLVQAGGSLRLSCAASGRIFTRNAMGWYRQAPGKERELVATISAGGGRTSYADSVKGRFTISRDNAKNTVYLQMNSLKPEDTAVYYCAARGQVGYYWGQGTQVTVSS” the “polyreactivity (PSR sort gate)” value was “high polyreactivity”.
For “QVQLVESGGGLVQAGGSLRLSCAASGRIFTRNGMGWYRQAPGKERELVAASTRGGRTNYADSVKGRFTISRDNAKNTVYLQMNSLKPEDTAVYYCAAGFPWSYYGSYDYWGQGTQVTVSS”, the “polyreactivity (PSR sort gate)” value was “high polyreactivity”.
For “QVQLVESGGGLVQAGGSLRLSCAASGRIFTRNVMGWYRQAPGKERELVARINSGGRTYYADSVKGRFTISRDNAKNTVYLQMNSLKPEDTAVYYCAVPFYWYSPMDSWGQGTQVTVSS”, the “polyreactivity (PSR sort gate)” value was “high polyreactivity”.
With “QVQLVESGGGLVQAGGSLRLSCAASGRIFTRYAMGWNRQAPGKETELGAAITASGGRTYYADSVKGRFTISRDNAKNTVYLQMNSLKPEDTAVYYCAATYHRYYETQDSYDYWGQGTQLTVSS” the “polyreactivity (PSR sort gate)” value was “high polyreactivity”.
For “QVQLVESGGGLVQAGGSLRLSCAASGRIFTRYAMGWYRQAPGKERELVAAITYNGGSTYYADSVKGRFTISRDNAKNTVYLQMNSLKPEDTAVYYCNAVYLSWFGLYAGFDYWGQGTQVTVSS”, the “polyreactivity (PSR sort gate)” value was “high polyreactivity”.
For “QVQLVESGGGLVQAGGSLRLSCAASGRIFTRYAMGWYRQAPGKERELVATITRRGGSTYYADSVKGRFTISRDNAKNTVYLQMNSLKPEDTAVYYCAKDRTTSSFGEYDYWGQGTQVTVSS”, the “polyreactivity (PSR sort gate)” value was “high polyreactivity”.
In the case of “QVQLVESGGGLVQAGGSLRLSCAASGRIFTRYAMGWYRQAPGKERELVSAISSGGSTYYADSVKGRFTISRDNAKNTVYLQMNSLKPEDTAVYYCAAKTRPQRTYSTRQQMNYWGQGTQVTVSS”, the “polyreactivity (PSR sort gate)” value is reported as “high polyreactivity”.
For “QVQLVESGGGLVQAGGSLRLSCAASGRIFTSYTMGWYRQAPGKERELVAAISASGASTYYADSVKGRFTISRDNAKNTVYLQMNSLKPEDSAVYYCATVRPRERRGYWGQGTQVTVSS”, the “polyreactivity (PSR sort gate)” value was “high polyreactivity”.
With “QVQLVESGGGLVQAGGSLRLSCAASGRIFTSYVMGWYRQAPGKERELVAAITSSGGSTYYADSVKGRFTISRDNAKNTVYLQMNSLKPEDTAVYYCAAATRGSGRRYDYWGQGTQVTVSS” the “polyreactivity (PSR sort gate)” value was “high polyreactivity”.
With “QVQLVESGGGLVQAGGSLRLSCAASGRIFTTNTMGWYRQAPGKERELVARITYSGTSTYYADSVKGRFTISRDNAKNTVYLQMNSLKPEDTAVYYCAAKVWWRKYLLQDYYYWGQGTQVTVSS” the “polyreactivity (PSR sort gate)” value was “high polyreactivity”.
For “QVQLVESGGGLVQAGGSLRLSCAASGRIFTTYAMGWYRQAPGKERELVARIRWRGGSTYYADSVKGRFTISRDNAKNTVYLKMNSLKPEDTAVYYCNADKYYGFDYWGQGTQVTVSS”, the “polyreactivity (PSR sort gate)” value was “high polyreactivity”.
In the case of “QVQLVESGGGLVQAGGSLRLSCAASGRIFTTYVMGWYRQAPGKERELVAAISARGSTYYADSVKGRFTISRDNAKNTVYLQMNSLKPEDTAVYYCAAGHRLPVYYGYPRATYNYWGQGTQVTVSS”, the “polyreactivity (PSR sort gate)” value is reported as “low polyreactivity”.
In the case of “QVQLVESGGGLVQAGGSLRLSCAASGRIFTWYAMGWYRQAPGKERELVAAINASGGGTYADSVKGRFTISRDNAKNTVYLQMNSLKPEDTAVYYCNADIRAFYLYYSEGFSWRLDYWGQGTQVTVSS”, the “polyreactivity (PSR sort gate)” value is reported as “high polyreactivity”.
In the case of “QVQLVESGGGLVQAGGSLRLSCAASGRIFTWYAMGWYRQAPGKERELVATISTGGSTNYADSVKGRFTISRDNAKNTVYLQMNSLKPEDTAVYYCAAKWPWSPNAFYYWGQGTQVTVSS”, the “polyreactivity (PSR sort gate)” value is reported as “high polyreactivity”.
